{"source": "patent US6294384", "about": "“Compositions and methods based upon an isoform of p53” (The Brigham and Women's Hospital Inc., dated 2001)", "molecular_target": "the molecule itself", "assay": "yeast two-hybrid system and immunoprecipitation"}
{"protein": "p35 isoform of p53 derived from rat cardiac myocytes (other) MEDSQSDMSIELPLSQETFSCLWKLLPPDDILPTTATGSPNSMEDLFLPQDVAELLEGPEEALQVSAPAAQEPGTEAPAPVAPASATPWPLSSSVPSQKTYQGNYGFHLGFLQSGTAKSVMCTYSISLNKLFCQLAKTCPVQLWVTSTPPPGTRVRAMAIYKKSQHMTEVVRRCPHHERCSDGDGLAPPQHLIRVEGNPYAEYLDDRQTFRHSVVVPYEPPEVGSDYTTIHYKYMCNSSCMGGMNRRPILTIITLEDSRSVGVSASACSES", "values": [{"measurement": "binding result", "result": "no binding"}]}
